From patent publication US20140134647A1 (LA JOLLA INSTITUTE FOR ALLERGY AND IMMUNOLOGY, published 2014) come the findings set out here.

The target in test [1] is TRAIL-R2-Fc mutant F112A (human) (UniProt O14763).
The target in test [2] is TRAIL-R2-Fc mutant D148A (human) (UniProt O14763).
For test [3], the target named is TRAIL-R2-Fc double mutant L110A/L114A (human) (UniProt O14763).
The target of test [4] is TRAIL-R2-Fc mutant V167A (human) (UniProt O14763).
Test [5] addresses CD155-Fc (CD155/PVR ectodomain Fc fusion) (human) (UniProt P15151). As to the kind of experiment: SPR, kinetic 1:1 fit; CD155-Fc immobilized, UL141 analyte. On the technique in general: SPR reads the build-up and loss of mass on a sensor chip optically.
Test [6] deals with TRAIL-R1-Fc (human TRAIL-R1/DR4 ectodomain Fc fusion) (human) (UniProt O00220). Kind of test: SPR, average of KDeq and KD (KDave); TRAIL-R1-Fc immobilized, UL141 analyte.
TRAIL-R1-Fc (human TRAIL-R1/DR4 ectodomain Fc fusion) (human), sequence (O00220 24-239): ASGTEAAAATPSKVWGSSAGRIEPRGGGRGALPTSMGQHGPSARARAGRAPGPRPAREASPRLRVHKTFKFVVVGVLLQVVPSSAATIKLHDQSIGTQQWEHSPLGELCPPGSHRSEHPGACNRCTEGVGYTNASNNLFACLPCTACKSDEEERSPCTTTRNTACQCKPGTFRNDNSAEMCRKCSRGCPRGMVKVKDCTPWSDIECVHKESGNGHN
The target in test [7] is TRAIL-R2-Fc (human TRAIL-R2 aa 58-184, thrombin site, Fc of human IgG1), wild type (human) (UniProt O14763). Kind of test: SPR; TRAIL-R2-Fc captured on anti-human Fc chip, UL141 analyte.
TRAIL-R2-Fc (human TRAIL-R2 aa 58-184, thrombin site, Fc of human IgG1), wild type (human), sequence (O14763 other isoform, or with tags, fused parts or gaps limits assumed): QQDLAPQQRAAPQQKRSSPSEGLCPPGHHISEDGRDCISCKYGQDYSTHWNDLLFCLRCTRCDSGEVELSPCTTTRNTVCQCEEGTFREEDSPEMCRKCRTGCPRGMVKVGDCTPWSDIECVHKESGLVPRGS
The target of test [8] is TRAIL-R1-Fc (human TRAIL-R1/DR4 ectodomain Fc fusion) (human) (UniProt O00220). Kind of test: SPR, steady-state (KDeq); TRAIL-R1-Fc immobilized, UL141 analyte.
Test [9] concerns the target TRAIL-R2-Fc mutant F112A (human) (UniProt O14763). As to the kind of experiment: SPR; TRAIL-R2-Fc mutant captured on anti-human Fc chip, UL141 analyte.
In test [10] the target is TRAIL-R2-Fc mutant D148A (human) (UniProt O14763). The test is described as above.
Test [11] concerns the target TRAIL-R2-Fc double mutant L110A/L114A (human) (UniProt O14763). The description is as above.
In test [12] the target is TRAIL-R2-Fc mutant M152A (human) (UniProt O14763). The test is described as above.
TRAIL-R2-Fc mutant M152A (human), sequence (O14763 other isoform, or with tags, fused parts or gaps M152A M152A limits assumed): as the sequence (O14763 other isoform, or with tags, fused parts or gaps limits assumed) above, with M95A counted along it
For test [13], the target named is TRAIL-R2-Fc mutant K155A (human) (UniProt O14763). The description is as above.
TRAIL-R2-Fc mutant K155A (human), sequence (O14763 other isoform, or with tags, fused parts or gaps K155A K155A limits assumed): as the sequence (O14763 other isoform, or with tags, fused parts or gaps limits assumed) above, with K98A counted along it
The target of test [14] is TRAIL-R2-Fc mutant V167A (human) (UniProt O14763). The description is as above.
In test [15] the target is TRAIL-R2-Fc mutant P150A (human) (UniProt O14763). The test is described as above.
TRAIL-R2-Fc mutant P150A (human), sequence (O14763 other isoform, or with tags, fused parts or gaps P150A P150A limits assumed): as the sequence (O14763 other isoform, or with tags, fused parts or gaps limits assumed) above, with P93A counted along it
In test [16] the target is TRAIL-R2-Fc mutant R154A (human) (UniProt O14763). Described as above.
TRAIL-R2-Fc mutant R154A (human), sequence (O14763 other isoform, or with tags, fused parts or gaps R154A R154A limits assumed): as the sequence (O14763 other isoform, or with tags, fused parts or gaps limits assumed) above, with R97A counted along it
In test [17] the target is TRAIL-R2-Fc triple mutant M152A/R154A/K155A (human) (UniProt O14763). The description is as above.
TRAIL-R2-Fc triple mutant M152A/R154A/K155A (human), sequence (O14763 other isoform, or with tags, fused parts or gaps M152A R154A K155A M152A R154A K155A limits assumed): as the sequence (O14763 other isoform, or with tags, fused parts or gaps limits assumed) above, with M95A, R97A, K98A counted along it
The target of test [18] is TRAIL-R2-Fc double mutant E78A/D109A (human) (UniProt O14763). Described as above.
TRAIL-R2-Fc double mutant E78A/D109A (human), sequence (O14763 other isoform, or with tags, fused parts or gaps E78A D109A E78A D109A limits assumed): as the sequence (O14763 other isoform, or with tags, fused parts or gaps limits assumed) above, with E21A, D52A counted along it
In test [19] the target is TRAIL-R2-Fc (human TRAIL-R2 aa 58-184, thrombin site, Fc of human IgG1), wild type (human) (UniProt O14763). As to the kind of experiment: SPR, kinetic 1:1 fit; TRAIL-R2-Fc immobilized, UL141 analyte.
Test [20] deals with TRAIL-R1-Fc (human TRAIL-R1/DR4 ectodomain Fc fusion) (human) (UniProt O00220). Kind of test: SPR, kinetic 1:1 fit; TRAIL-R1-Fc immobilized, UL141 analyte.
Test [21] has as its target CD155-Fc (CD155/PVR ectodomain Fc fusion) (human) (UniProt P15151). Kind of test: SPR, KDave; CD155-Fc immobilized, UL141 analyte.
Test [22] shares this target. As to the kind of experiment: SPR; CD155-Fc immobilized, UL141 analyte.
Test [23] deals with TRAIL-R1-Fc (human TRAIL-R1/DR4 ectodomain Fc fusion) (human) (UniProt O00220). As to the kind of experiment: SPR; TRAIL-R1-Fc immobilized, UL141 analyte.
In test [24] the target is TRAIL-R2-Fc (human TRAIL-R2 aa 58-184, thrombin site, Fc of human IgG1), wild type (human) (UniProt O14763). As to the kind of experiment: SPR; TRAIL-R2-Fc immobilized, UL141 analyte.
In test [25] the target is TRAIL-R2-Fc double mutant L110A/L114A (human) (UniProt O14763). As to the kind of experiment: SPR, alanine mutant.
For test [26], the target named is TRAIL-R2-Fc (human TRAIL-R2 aa 58-184, thrombin site, Fc of human IgG1), wild type (human) (UniProt O14763). Kind of test: SPR, KDave; TRAIL-R2-Fc immobilized, UL141 analyte.
Test [27] addresses CD155-Fc (CD155/PVR ectodomain Fc fusion) (human) (UniProt P15151). As to the kind of experiment: SPR; CD155-Fc immobilized, pre-formed UL141-TRAIL-R2 complex analyte.
For test [28] the target is unchanged.
The target is the same in test [29]. As to the kind of experiment: SPR, KDave; CD155-Fc immobilized, pre-formed UL141-TRAIL-R2 complex analyte.
For test [30], the target named is T1, TRAIL-R2 (DR5) ectodomain monomer, aa 58-184, without Fc (human, UniProt O14763 58-184).
T1 construct: range 58-184; also called monomeric TRAIL-R2; TRAIL-R2 monomer
T1 sequence (O14763 58-184 limits assumed): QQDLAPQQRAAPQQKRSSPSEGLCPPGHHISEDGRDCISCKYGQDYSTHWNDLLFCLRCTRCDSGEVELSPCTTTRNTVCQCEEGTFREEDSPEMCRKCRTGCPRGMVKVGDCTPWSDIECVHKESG
As to the kind of experiment: SPR, steady-state (KDeq); UL141-Fc immobilized, TRAIL-R2 analyte.

The target in test [31] is T1, TRAIL-R2 (DR5) ectodomain monomer, aa …. Kind of test: SPR, average of KDeq and KD (KDave); UL141-Fc immobilized, TRAIL-R2 analyte.
The target is the same in test [32]. As to the kind of experiment: SPR, kinetic 1:1 fit; UL141-Fc immobilized, TRAIL-R2 analyte.
For test [33], the target named is T2, mouse TRAIL-R2:Fc (extracellular domain of mouse TRAIL-R2 fused to human IgG constant domain) (mouse; human, UniProt Q9QZM4 53-180; P01857 104-330 = IgG part).
T2 construct: extracellular domain;domain: human IgG VH constant domain; also called mTRAIL-R2:Fc
T2 sequence (Q9QZM4 other isoform, or with tags, fused parts or gaps limits assumed): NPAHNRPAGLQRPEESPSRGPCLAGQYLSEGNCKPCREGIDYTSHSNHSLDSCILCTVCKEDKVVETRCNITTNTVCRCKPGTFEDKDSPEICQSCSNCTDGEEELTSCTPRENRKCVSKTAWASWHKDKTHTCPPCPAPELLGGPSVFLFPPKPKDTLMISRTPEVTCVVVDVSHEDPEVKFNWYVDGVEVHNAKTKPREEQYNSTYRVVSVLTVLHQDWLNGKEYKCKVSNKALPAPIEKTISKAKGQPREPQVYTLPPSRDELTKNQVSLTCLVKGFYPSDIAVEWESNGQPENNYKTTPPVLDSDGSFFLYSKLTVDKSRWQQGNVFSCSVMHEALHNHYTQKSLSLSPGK
As to the kind of experiment: ELISA-based assay. Background: An ELISA detects its analyte on a solid surface through an enzyme-linked reagent.

Test [34] deals with T1, TRAIL-R2 (DR5) ectodomain monomer, aa …. Kind of test: SPR; UL141-Fc immobilized, TRAIL-R2 analyte.

Values joined by “and” are separate entries in the source; they are usually repeats but may differ in a detail not shown here. Equal entries are not always repeated. Where two headings read alike, the source gives them in different places.

CD155-Fc (CD155/PVR ectodomain Fc fusion) (human), sequence (P15151 21-343 limits assumed): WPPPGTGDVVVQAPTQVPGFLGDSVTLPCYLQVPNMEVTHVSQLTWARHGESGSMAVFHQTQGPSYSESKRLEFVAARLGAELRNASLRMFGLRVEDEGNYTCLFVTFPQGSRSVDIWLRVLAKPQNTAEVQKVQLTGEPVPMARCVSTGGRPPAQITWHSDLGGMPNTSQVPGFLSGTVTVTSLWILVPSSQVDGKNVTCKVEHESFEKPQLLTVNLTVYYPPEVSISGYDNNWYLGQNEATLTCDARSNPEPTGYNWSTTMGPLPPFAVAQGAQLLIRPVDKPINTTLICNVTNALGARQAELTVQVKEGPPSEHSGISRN
TRAIL-R2-Fc double mutant L110A/L114A (human), sequence (O14763 other isoform, or with tags, fused parts or gaps L110A L114A L110A L114A limits assumed): as the sequence (O14763 other isoform, or with tags, fused parts or gaps limits assumed) above, with L53A, L57A counted along it
TRAIL-R2-Fc mutant V167A (human), sequence (O14763 other isoform, or with tags, fused parts or gaps V167A V167A limits assumed): as the sequence (O14763 other isoform, or with tags, fused parts or gaps limits assumed) above, with V110A counted along it
TRAIL-R2-Fc mutant F112A (human), sequence (O14763 other isoform, or with tags, fused parts or gaps F112A F112A limits assumed): as the sequence (O14763 other isoform, or with tags, fused parts or gaps limits assumed) above, with F55A counted along it
TRAIL-R2-Fc mutant D148A (human), sequence (O14763 other isoform, or with tags, fused parts or gaps D148A D148A limits assumed): as the sequence (O14763 other isoform, or with tags, fused parts or gaps limits assumed) above, with D91A counted along it

Broadly, the Kd is the concentration at which binding is half-saturated. A high value points to weaker binding. Usually koff stands for the rate constant with which the complex falls apart. A low value points to slow dissociation. By kon is commonly meant the rate constant with which the complex forms. Read a low kon as slow association. In the case of “UL141 ectodomain (HCMV FIX strain) with C-terminal poly-histidine tag (ligand)”, the x-fold reduction in binding compared to wild type in test [1] was determined as 106 fold; in test [2] it was 9.2 fold; in test [3], 7.2 fold; in test [4], 2.6 fold. Besides, the equilibrium dissociation constant (Kd) in test [5] is 1.97 nM; in [6], 2300 nM; in test [7], 6 nM and 5.95 nM; in [8], 2.27 nM; in test [9], 630 nM; in test [10] it was 55.3 nM. In addition, the Kd stood at 42.7 nM in test [11]; 7.49 nM in test [12]; 7.74 nM in [13]; 15.5 nM in test [14]; 8.32 nM in [15]; 6.26 nM in test [16]. The Kd in test [17] turned out to be 7.39 nM; in test [18], 60.4 nM; in test [19], 5.96 nM; in [20] it was 2330 nM; in test [21], 2 nM; in [26], 6 nM. For the same molecule, the koff in [7] stood at 7.21e-05 s⁻¹; in test [9], 0.00566 s⁻¹; in test [10] it was 0.0013 s⁻¹; in test [11], 0.00064 s⁻¹; in [12], 0.000382 s⁻¹; in [13] it was 0.00038 s⁻¹. For the same molecule, the koff in test [14] amounted to 0.00048 s⁻¹; in test [15], 0.000391 s⁻¹; in test [16], 0.000243 s⁻¹; in test [17] it was 0.00027 s⁻¹; in [18], 0.00151 s⁻¹; in [22] it was 0.000346 s⁻¹. Besides, the koff was determined as 0.014 s⁻¹ in test [23] and 7.21e-05 s⁻¹ in test [24]. The on-rate constant (kon) in test [7] turned out to be 12100 M⁻¹ s⁻¹; in [9], 8980 M⁻¹ s⁻¹; in test [10], 23500 M⁻¹ s⁻¹; in test [11], 15000 M⁻¹ s⁻¹; in [12] it was 51000 M⁻¹ s⁻¹; in test [13], 49100 M⁻¹ s⁻¹. For the same molecule, the on-rate constant (kon) in [14] was found to be 31000 M⁻¹ s⁻¹; in [15] it was 47000 M⁻¹ s⁻¹; in [16], 38800 M⁻¹ s⁻¹; in [17] it was 36500 M⁻¹ s⁻¹; in test [18] it was 25000 M⁻¹ s⁻¹; in test [22] it was 176000 M⁻¹ s⁻¹. In addition, the kon in test [23] came out at 6020 M⁻¹ s⁻¹; in test [24] it was 12100 M⁻¹ s⁻¹. Further, the fold lower binding than wild-type in test [9] is 100 fold; in [10], 10 fold; in test [11] it was 10 fold; in [14], 2.5 fold; in test [18] it was 10 fold. In [25], this molecule had a fold decrease in binding affinity against wild-type of 7 fold.

In test [27], “pre-formed UL141-TRAIL-R2 protein complex (from UniProt O14763 58-184)” registered a koff of 0.000333 s⁻¹ and a kon of 152000 M⁻¹ s⁻¹. The Kd in test [28] was 2.19 nM. The molecule further came in with a Kd in test [29] of 2 nM.

B1: UL141-Fc (UL141 ectodomain fused to the Fc region of human IgG1) (Fc fusion)
chain: DIAEKMWAENYETTSPAPVLVAEGEQVTIPCTVMTHSWPMVSIRARFCRSHDGSDELILDAVKGHRLMNGLQYRLPYATWNFSQLHLGQIFSLTFNVSTDTAGMYECVLRNYSHGLIMQRFVILTQLETLSRPDEPCCTPALGRYSLGDQIWSPTPWRLRNHDCGMYRGFQRNYFYIGRADAEDCWKPACPDEEPDRCWTVIQRYRLPGDCYRSQPHPPKFLPVTPAPPADIDTGMS
Take B1: the Kd in test [30] was 19.8 nM; in test [31], 20 nM; in test [32] it was 21.4 nM. Also, the binding result in [33] was “no binding”. This molecule gave a koff in test [34] of 0.00564 s⁻¹. The molecule further returned a kon in test [34] of 264000 M⁻¹ s⁻¹.
